No end group written: not given here. *: point of attachment. For = O=C*
B1: PSMα3, synthetic peptide (peptide)
chain: For-MEFVAKLFKFFKDLLGKFLGNN
notes: source: synthetic peptide (Sangon Biotech, purity > 95%)
B2: PSMα2, synthetic peptide (peptide)
chain: For-MGIIAGIIKFIKGLIEKFTGK
notes: as for B1
B3: PSMα2 (secreted by S. aureus MW2) (peptide)
chain: MGIIAGIIKFIKGLIEKFTGK
notes: also called phenol-soluble modulin α2
B4: PSMα3 (secreted by S. aureus MW2) (peptide)
chain: MEFVAKLFKFFKDLLGKFLGNN
notes: also called phenol-soluble modulin α3
B5: PSMα1 (secreted by S. aureus MW2) (peptide)
chain: MGIIAGIIKVIKSLIEQFTGK
notes: also called phenol-soluble modulin α1
B6: PSMα4, synthetic peptide (peptide)
chain: For-MAIVGTIIKIIKAIIDIFAK
notes: as for B1
B7: PSMα1, synthetic peptide (peptide)
chain: For-MGIIAGIIKVIKSLIEQFTGK
notes: as for B1

Columns and labels:
Assay in all cases: co-IP
Conditions in all cases: both partners purified
[1] = molecular target: T1, deformylated δ-toxin, synthetic peptide (Staphylococcus aureus)
T1 construct: also called dfδ-toxin

[2] = molecular target: T2, N-terminus formylated δ-toxin, synthetic peptide (Staphylococcus aureus, N-formylmethionine at the N-terminus (fM))
T2 construct: also called fδ-toxin

PSMα2, synthetic peptide = molecular target: B2
PSMα1, synthetic peptide = molecular target: B7
PSMα3, synthetic peptide = molecular target: B1
[3] = molecular target: B4
[4] = molecular target: T3, δ-toxin (secreted by S. aureus MW2 and its ΔPSMα strain) (Staphylococcus aureus MW2, N-terminal methionine formylated in part of the peptides (fδ-toxin) and deformylated in the rest (dfδ-toxin); Aggregate1 more than 50% fδ-toxin, Aggregate2 more than 85% dfδ-toxin)
T3 construct: also called PSMγ; δ-hemolysin

[5] = molecular target: B5
[6] = molecular target: B3

Measured: binding result

B1
binds: [1] | [2] | PSMα2, synthetic peptide | PSMα1, synthetic peptide

B2
binds: [1] | [2] | PSMα1, synthetic peptide | PSMα3, synthetic peptide

MAIVGTIIKIIKAIIDIFAK (also called phenol-soluble modulin α4) [PSMα4 (secreted by S. aureus MW2)]
binds: [3] | [4] | [5] | [6]

B3
binds: [3] | [4] | [5]

B4
binds: [4] | [5] | [6]

B5
binds: [3] | [4] | [6]

B6
binds: [1] | [2] | PSMα2, synthetic peptide | PSMα1, synthetic peptide | PSMα3, synthetic peptide

B7
binds: [1] | [2] | PSMα2, synthetic peptide | PSMα3, synthetic peptide
